Positions count from the first letter of the chain named. Where two headings read alike, the source gives them in different places.

For one assay, the target named is T1, cancer/testis antigen 1A (human, UniProt P78358 1-180).
T1 construct: on protein array; also called CTAG1A
The assay is described as follows: protein array.

Assay [1] addresses T2, ubiquilin 1, transcript variant 2 (human, UniProt Q9UMX0 2-589).
T2 construct: HuProt array protein, full-length recombinant from yeast; also called UBQLN1
T2 sequence (Q9UMX0 other isoform, or with tags, fused parts or gaps mutant limits assumed): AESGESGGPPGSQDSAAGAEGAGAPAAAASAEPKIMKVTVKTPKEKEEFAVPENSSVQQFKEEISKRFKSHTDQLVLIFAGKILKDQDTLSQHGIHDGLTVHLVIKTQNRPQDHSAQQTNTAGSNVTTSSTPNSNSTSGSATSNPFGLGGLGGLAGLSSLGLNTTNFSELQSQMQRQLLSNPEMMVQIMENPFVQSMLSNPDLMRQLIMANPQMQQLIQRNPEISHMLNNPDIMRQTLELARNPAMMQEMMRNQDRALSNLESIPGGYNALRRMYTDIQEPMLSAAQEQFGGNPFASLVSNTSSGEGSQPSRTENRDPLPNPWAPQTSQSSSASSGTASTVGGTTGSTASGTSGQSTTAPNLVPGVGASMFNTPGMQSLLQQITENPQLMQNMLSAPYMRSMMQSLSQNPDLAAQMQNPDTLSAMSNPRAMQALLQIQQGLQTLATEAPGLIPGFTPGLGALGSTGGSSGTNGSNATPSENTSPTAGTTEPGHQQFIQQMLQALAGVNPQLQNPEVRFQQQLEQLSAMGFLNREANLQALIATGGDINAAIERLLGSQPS

Assay [2] has as its target T3, ubiquilin 1, transcript variant 2 (human, UniProt Q9UMX0 2-589).
T3 construct: on protein array; also called UBQLN1
Description: protein array.
T3 sequence (Q9UMX0 other isoform, or with tags, fused parts or gaps mutant limits assumed): as above

Assay [3] has as its target T4, Jupiter microtubule associated homolog 2 (human, UniProt Q9H910 1-190).
T4 construct: also called HN1L
T4 sequence: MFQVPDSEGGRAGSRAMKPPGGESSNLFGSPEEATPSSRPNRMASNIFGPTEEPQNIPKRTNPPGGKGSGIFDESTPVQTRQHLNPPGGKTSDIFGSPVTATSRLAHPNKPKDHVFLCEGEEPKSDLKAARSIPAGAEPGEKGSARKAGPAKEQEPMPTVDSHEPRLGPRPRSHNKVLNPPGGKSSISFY

Assay [4] addresses T5, DIX domain containing 1, transcript variant 2 (human, UniProt Q155Q3 220-683).
T5 construct: on protein array; also called DIXDC1
T5 sequence: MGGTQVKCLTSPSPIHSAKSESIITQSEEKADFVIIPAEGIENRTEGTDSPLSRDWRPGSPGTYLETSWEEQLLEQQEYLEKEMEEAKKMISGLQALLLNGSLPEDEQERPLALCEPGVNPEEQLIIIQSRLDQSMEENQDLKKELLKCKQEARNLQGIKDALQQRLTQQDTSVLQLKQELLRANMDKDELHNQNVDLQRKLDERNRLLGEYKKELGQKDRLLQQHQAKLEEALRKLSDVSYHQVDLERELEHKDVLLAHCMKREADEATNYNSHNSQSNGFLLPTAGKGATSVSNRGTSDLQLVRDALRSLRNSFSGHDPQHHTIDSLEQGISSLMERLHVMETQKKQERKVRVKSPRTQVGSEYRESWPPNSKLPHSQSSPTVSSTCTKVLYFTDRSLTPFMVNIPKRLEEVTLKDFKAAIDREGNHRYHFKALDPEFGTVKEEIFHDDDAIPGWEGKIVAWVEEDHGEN
Description: protein array.

Assay [5] deals with T6, aarF domain containing kinase 5 (human, UniProt Q3MIX3 1-580).
T6 construct: on protein array; also called ADCK5
Description: protein array.

The target in assay [6] is T7, quinoid dihydropteridine reductase, transcript variant 1 (human, UniProt P09417 2-244).
T7 construct: on protein array; also called QDPR
T7 sequence: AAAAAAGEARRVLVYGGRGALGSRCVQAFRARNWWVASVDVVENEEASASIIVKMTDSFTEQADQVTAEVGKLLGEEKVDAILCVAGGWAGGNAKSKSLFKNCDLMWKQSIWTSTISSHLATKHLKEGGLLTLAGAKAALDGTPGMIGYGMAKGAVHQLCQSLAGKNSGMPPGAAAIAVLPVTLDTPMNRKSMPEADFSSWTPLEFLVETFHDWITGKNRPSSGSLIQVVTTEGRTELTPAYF
The assay is described as follows: protein array.

In assay [7] the target is T8, quinoid dihydropteridine reductase, transcript variant 1 (human, UniProt P09417 2-244).
T8 construct: HuProt array protein, full-length recombinant from yeast; also called QDPR
T8 sequence: T7 sequence

The target in assay [8] is T9, kelch like ECH associated protein 1, transcript variant 1 (human, UniProt Q14145 1-624).
T9 construct: on protein array; also called KEAP1
The assay is described as follows: protein array.

Assay [9] concerns the target T10, influenza virus NS1A binding protein (human, UniProt Q9Y6Y0 1-642).
T10 construct: on protein array; also called IVNS1ABP
T10 sequence: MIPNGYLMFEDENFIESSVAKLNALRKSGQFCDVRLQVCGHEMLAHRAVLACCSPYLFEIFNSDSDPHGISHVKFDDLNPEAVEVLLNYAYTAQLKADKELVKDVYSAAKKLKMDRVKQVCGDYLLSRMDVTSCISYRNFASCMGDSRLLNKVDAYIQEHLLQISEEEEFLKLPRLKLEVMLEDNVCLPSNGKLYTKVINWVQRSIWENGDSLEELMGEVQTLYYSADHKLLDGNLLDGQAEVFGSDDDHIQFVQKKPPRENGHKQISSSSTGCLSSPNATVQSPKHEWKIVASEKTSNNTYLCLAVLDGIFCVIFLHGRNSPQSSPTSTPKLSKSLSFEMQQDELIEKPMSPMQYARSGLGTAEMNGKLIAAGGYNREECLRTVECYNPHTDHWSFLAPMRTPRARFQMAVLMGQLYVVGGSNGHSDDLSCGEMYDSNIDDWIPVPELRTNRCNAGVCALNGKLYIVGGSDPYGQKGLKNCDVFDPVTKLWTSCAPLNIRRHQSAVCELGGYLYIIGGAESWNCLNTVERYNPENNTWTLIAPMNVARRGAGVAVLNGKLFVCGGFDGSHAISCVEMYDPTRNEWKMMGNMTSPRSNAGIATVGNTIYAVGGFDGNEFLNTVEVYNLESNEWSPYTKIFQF
Description: protein array.

T6 sequence (Q3MIX3 other isoform, or with tags, fused parts or gaps limits assumed): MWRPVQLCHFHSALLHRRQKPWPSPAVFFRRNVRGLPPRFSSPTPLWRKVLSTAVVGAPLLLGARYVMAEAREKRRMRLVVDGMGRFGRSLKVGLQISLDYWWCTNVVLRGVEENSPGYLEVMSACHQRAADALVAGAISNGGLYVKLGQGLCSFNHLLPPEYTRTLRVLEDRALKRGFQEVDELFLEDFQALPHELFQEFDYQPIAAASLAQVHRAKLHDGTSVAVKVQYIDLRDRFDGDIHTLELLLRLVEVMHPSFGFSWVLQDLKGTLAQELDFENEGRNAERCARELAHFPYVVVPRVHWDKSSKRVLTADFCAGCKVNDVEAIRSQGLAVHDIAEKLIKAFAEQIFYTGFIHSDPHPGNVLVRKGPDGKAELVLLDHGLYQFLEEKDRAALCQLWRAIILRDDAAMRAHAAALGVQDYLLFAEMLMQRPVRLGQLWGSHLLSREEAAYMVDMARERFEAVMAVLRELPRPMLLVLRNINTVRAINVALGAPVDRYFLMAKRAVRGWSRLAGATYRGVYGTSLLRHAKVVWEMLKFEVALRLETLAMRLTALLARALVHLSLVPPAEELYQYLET
T9 sequence (Q14145 whole entry, change not shown): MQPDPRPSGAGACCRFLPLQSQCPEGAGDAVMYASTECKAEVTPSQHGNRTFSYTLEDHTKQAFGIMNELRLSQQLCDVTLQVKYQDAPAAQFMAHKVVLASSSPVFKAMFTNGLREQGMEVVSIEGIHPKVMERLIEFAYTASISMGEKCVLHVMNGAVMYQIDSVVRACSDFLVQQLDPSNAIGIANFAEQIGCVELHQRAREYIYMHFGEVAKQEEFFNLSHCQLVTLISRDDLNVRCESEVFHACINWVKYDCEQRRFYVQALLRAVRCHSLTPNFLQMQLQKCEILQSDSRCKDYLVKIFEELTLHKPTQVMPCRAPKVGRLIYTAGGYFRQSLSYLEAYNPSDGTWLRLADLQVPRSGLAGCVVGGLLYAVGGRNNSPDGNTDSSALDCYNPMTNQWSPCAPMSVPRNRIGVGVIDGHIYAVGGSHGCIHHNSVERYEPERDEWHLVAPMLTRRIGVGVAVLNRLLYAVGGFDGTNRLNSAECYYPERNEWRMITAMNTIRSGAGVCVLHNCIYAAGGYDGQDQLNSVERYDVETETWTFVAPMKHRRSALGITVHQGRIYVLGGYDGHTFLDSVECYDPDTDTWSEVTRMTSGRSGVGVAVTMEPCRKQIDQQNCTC
T1 sequence (P78358 whole entry): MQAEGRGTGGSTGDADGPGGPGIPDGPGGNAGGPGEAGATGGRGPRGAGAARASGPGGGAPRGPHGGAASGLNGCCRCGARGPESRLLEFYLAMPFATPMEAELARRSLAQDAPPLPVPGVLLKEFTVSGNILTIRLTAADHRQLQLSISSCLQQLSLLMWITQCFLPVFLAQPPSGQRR

B1: TTHY1004 (antibody, V domains shown)
VH: PVQLQESGPGLVKPSQTLSLTCTVSGGSISSGTYYWSWIRQPAGKGLEWIGRIYASGSTNYNPSLKSRVTISVDTSKNQFSLKLTSVTAADTAVYYCARYSGSYPLGFDYWGQGTLVTVSS
VL: DIQMTQSPSSLSASVGDRVTITCRASQSISTYLNWYQQKPGMAPKLLIYAASTLQSGVPSRFSGSGSATDYTLTISSLQPEDFATYYCQQSYNTPLTFGGGTKVDIKR
notes: VH/VL tied via antigen in summary, not by name in this stretch
For the molecule B1, in the assay with cancer/testis antigen 1A, the binding result is listed as “binds”.

B2: TBLA1012 (antibody, V domains shown)
VH: LLQLVESGGGVVQPGRSLRLSCAASGFTFTRHGFHWVRQAPGKGLEWVAVISSDGRKIHYTDSVKGRFVISRDDSDNTVYLHMNSLRLGDTALYYCARDSGGTPGPYWGQGTLVTVSS
VL: DVVMTQSPLSLPVTLGQPASISCRSSQSLVHSDGNTYLNWFQQRPGQSPRRLIYMVSNRDSGVPDRFSGSGSGTDFTLKISRVEAEDVGVYYCLQGTHWPPTIGQGTKVEIE
notes: VH/VL only
Consider B2, for which, in the assay with cancer/testis antigen 1A, the binding result is given as “binds”.

B3: TBRE1030 (antibody, V domains shown)
VH: QVQLQESGPGLVKPSQTLSLTCTVSGGSISSGGYYWSWIRQHPGKGLEWIGYIYYSGSTYYNPSLKSRVTISVDTSKNQFSLKLSSVTAADTAVYYCARDLSCSSTSCHDAFDIWGQGTMVTVSS
VL: not shown
notes: detected with anti-human IgG Fc
With B3, in assay [1], the binding result was “binds”.

B4: TBRE1030 (antibody, V domains shown)
VH: B3 VH
VL: not shown
notes: VH/VL only
Consider B4, for which the binding result in assay [2] is recorded as “binds”.

B5: TOVA1008 (antibody, V domains shown)
VH: ELQLVESGGGLVQPGGSLRLSCAASGFTFSSYWMSWVRQAPGKGLEWVANINQDGGEKYYVDSVKGRFTISRDNAKNSLYLQMNSLRAEDTAVYYCAHYYYDSSGYYQNAEYFQYWGQGTLVTVSS
VL: DIQMTQSPPSLSASVGDRVTITCQASQDISNYLNWYQQKPGKTPKLLIYAASTLETGVPSRFSGSGSGTDFTFTINSLQPEDIATYYCQQYDSLPLTFGGGTKVEIKR
As for B5, in assay [3], the binding result is “binds”.

B6: TTES1001 (antibody, V domains shown)
VH: PVQLVQSGAEVKKPGSSVQVSCKGSGGTFSEYGISWLRQAPGQGLEWIGGIIPVLGIPNYAQKFRGRVTITADESTGSAYMEVSSLRSEDTAVYYCAREGLRLARGWFHPWGQGTLVTVTS
VL: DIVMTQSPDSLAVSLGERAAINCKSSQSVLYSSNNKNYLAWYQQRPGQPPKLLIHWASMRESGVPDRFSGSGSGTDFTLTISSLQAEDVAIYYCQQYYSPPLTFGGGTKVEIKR
notes: as for B1
For the molecule B6, the binding result in assay [4] is reported as “binds”.

B7: TKIC1002 (antibody, V domains shown)
VH: PVQLQESGPGLVKPSETLSLTCTVSGGSISSYYWSWIRQPPGKGLEWIGYLFYSGSTNYNPSLKSRVTISVDTSKNQFSLKLGSVTAADTAVYYCARHRIFGLDVWGQGTTVTVSS
VL: EIVLTQSPGTLSLSLGERATLSCRASQSVSGSHLAWYQQKPGQAPRLLIYDASSRATGIPDRFSGSGSGTEFTLTISRLEPEDFAVYYCQQYGSSPLWFGQGTKVEIK
notes: VH/VL only
For the molecule B7, the binding result in assay [5] is recorded as “binds”.

B8: TLUS1001 (antibody, V domains shown)
VH: QVQLQESGPGLVKPSETLSLTCTVSGDSISSNYWSWIRQPPGKGLEWIGYIYYSGSTNYNPSLKSRVTISVDTSKNQFSVKLSSVTAADTAVYYCARYGDYSFDPWGQGTLVTVSS
VL: not shown
notes: as for B1
Take B8: in [6], the binding result was “binds”.

B9: TLUS1001 (antibody, V domains shown)
VH: B8 VH
VL: not shown
notes: as for B3
Take B9: the binding result in assay [7] was “binds”.

B10: TTES1009 (antibody, V domains shown)
VH: EVQLVESGGGLVQPGGSLRLSCAASGFTFSSYEMNWVRQAPGKGLEWVSYISSSGSTIYYADSVKGRFTISRDNAKNSLYLQMNSLRAEDTAVYYCARRGFYYYYGMDVWGQGTTVTVSS
VL: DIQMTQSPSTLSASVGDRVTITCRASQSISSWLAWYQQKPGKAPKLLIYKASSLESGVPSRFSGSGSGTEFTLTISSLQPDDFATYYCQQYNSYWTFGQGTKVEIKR
notes: as for B1
Turning to B10, the binding result in assay [5] is given as “binds”.

B11: TCOL1007 (antibody, V domains shown)
VH: PVQLVESGGGVVQPGRSLRLSCAASGFTFSNYGMHWVRQAPGKGLEWVAVISDDGNDKDNADSVKGRFTISRDNSKNTLYLRMNSLRREDTAVYYCARDGFDYWGQGTLVTVSS
VL: DIVMTQTPLSMPVTPGEPASISCRSSQSLLDSDDGKTYLDWYLQKPGQSPQLLIYTVSYRASGVPDRFSGSGSGTDFTLKISRVEAEDVGVYYCMQRIEFPFTFGPGTKVDIKR
notes: VH/VL only
With B11, in assay [8], the binding result is “binds”.

B12: TTES1010 (antibody, V domains shown)
VH: EVQLVESGGGLVQPGGSLRLSCAASGFTFSSYSMNWVRQAPGKGLEWVSYISSSSSTIYYADSVKGRFTISRDNAKNSLYLQMNSLRAEDTAVYYCASLLGGDPDYWGQGTLVTVSS
VL: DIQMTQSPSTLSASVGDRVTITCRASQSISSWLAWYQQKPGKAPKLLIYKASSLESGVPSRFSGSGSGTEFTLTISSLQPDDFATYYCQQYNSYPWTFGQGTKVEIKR
notes: as for B1
Consider B12, for which, in assay [4], the binding result was “binds”.

B13: TCER1004 (antibody, V domains shown)
VH: VVQLVESGGGLVQPGGSLRLSCAASGFTFSSYSMNWVRQAPGKGLEWLSYVSSSGSTMYYADSVKGRFTISRDTAKNSLFLQMNSLRAEDTAVYYCAKGGPLRPFDIWGQGTLVTVSS
VL: VIQMTQSPTSLSASVGDRVTITCRASQSISSYLNWYQQKLGKAPKLLIYAASSLQSGVPSRFSGSGSGTDFTLTISSLQPEDFATYYCQQSYSTSLTFGGGTKVEIKR
notes: VH/VL only
For the molecule B13, the binding result in assay [9] was “binds”.

B14: THNS1008 (antibody, V domains shown)
VH: QVQLQESGPGLVKPSQTLSLTCAVSGGSISSGGYPWSWIRQPPGKGLEWIGYISYSGSTDYNPSLKSRVTISLDTSSNQFSLNLSSLTAADTAVYYCARGAAFYYGMDVWGQGTTVTVSS
VL: B13 VL with V1D, T9S, S31T, L40P, A50V, S77G, S95P, L96Y, G100Q, V104L
notes: VH/VL only
Take B14: the binding result in assay [8] was “binds”.

B15: TMEL1034 (antibody, V domains shown)
VH: QLQLQESGPGLVKPWETLSLSCTVSGGSISSSFFYWGWIRQPPGKGLQWIGNIHYTGSTYYNPSLKSRITMSVDTSKNQFSLKLSSVTAADTAVYYCARHRVGDSPGLHYWGQGTLVTVSS
VL: SYELTQPPSVSVSPGQTARITCSGDALPKKYAFWYQQKSGQAPVLVIYEDSKRPSGIPERFSGSSSGTMATLTISGAQVEDESDYYCYSTDSSGNVWVFGGGTKLTVLG
notes: as for B1
In the case of B15, in [6], the binding result was “binds”.

B16: TMEL1034 (antibody, V domains shown)
VH: B15 VH
VL: B15 VL
notes: as for B3
With B16, the binding result in [7] is recorded as “binds”.

The values are drawn from patent US20220204643A1 (published 2022).
